This note sets out measurements from the RNAGym collection of RNA variant scans (doi:10.7554/elife.80360).

Sequences and labels used below:
B1: HDV Ribozyme (parent)
chain: GGCCGGCAUGGUCCCAGCCUCCUCGCUGGCGCCGGCUGGGCAACAUUCCGAGGGGACCGUCCCCUCGGUAAUGGCGAAUGGGACCCA

The variants in this data set derive from B1. The data set can be described thus: self-cleavage, relative activity (ratio to wild type); higher = more cleavage; co-transcriptional.
Regarding GGUCGGCAUGGUCCCAGCCUCCUCGCUGGCGCCGGCUGGGCAACAUUCUGAGGGGACCGUCCCCUCGGUAAUGGCGAAUGGGACCCA [C3U C49U], the self-cleavage stood at 0.762.
The figure for GGUCGGCAUGGUCCCAGCCUCCUCGCUCGCGCCGGCUGGGCAACAUUCCGAGGGGACCGUCCCCUCGGUAAUGGCGAAUGGGACCCA [C3U G28C] is 0.0449; for GGUCGGCAUGGUCCCAGCCUCCUCGCUGGCGUCGGCUGGGCAACAUUCCGAGGGGACCGUCCCCUCGGUAAUGGCGAAUGGGACCCA [C3U C32U] it is 0.338.
The figure for GGUCGGCAUGGUCCCAGCCUGCUCGCUGGCGCCGGCUGGGCAACAUUCCGAGGGGACCGUCCCCUCGGUAAUGGCGAAUGGGACCCA [C3U C21G] is 0.0723; for GGUCGGCAUGGUCCCAGCCUCCUCGCUGGCGCCGGCUGGGCAACAUUCCGAGGGGACCGUCCCCUCGGUAAUGGCGAAUGGGAUCCA [C3U C84U] it is 0.808.
The figure for GGUCGCCAUGGUCCCAGCCUCCUCGCUGGCGCCGGCUGGGCAACAUUCCGAGGGGACCGUCCCCUCGGUAAUGGCGAAUGGGACCCA [C3U G6C] is 0; for GGUCGGCAUGGUCCCAGCCUCCUCGCUGGCGCCGGCUGGGCAACAUUCCGAGGGGAUCGUCCCCUCGGUAAUGGCGAAUGGGACCCA [C3U C57U] it is 0.794; for GGUCGGCAUGGUCCCAGCCUCCUCGCUGGCGCCGGCUGGGCAACAUUCCGAGGGGAACGUCCCCUCGGUAAUGGCGAAUGGGACCCA [C3U C57A] it is 0.9.
GGUCGGCAUGAUCCCAGCCUCCUCGCUGGCGCCGGCUGGGCAACAUUCCGAGGGGACCGUCCCCUCGGUAAUGGCGAAUGGGACCCA [C3U G11A]: the self-cleavage was found to be 0.262.
The figure for GGUCGGCAUGCUCCCAGCCUCCUCGCUGGCGCCGGCUGGGCAACAUUCCGAGGGGACCGUCCCCUCGGUAAUGGCGAAUGGGACCCA [C3U G11C] is 0.191; for GGUCGGCAUGGUCCCAGCCUCCUCGCUGGCGCCGGCUGGGCAACAUUUCGAGGGGACCGUCCCCUCGGUAAUGGCGAAUGGGACCCA [C3U C48U] it is 0.804.
The figure for GGUCGGCAUGGUCCCAGCCUCCUCGCUGGCGCCGGCUGGGUAACAUUCCGAGGGGACCGUCCCCUCGGUAAUGGCGAAUGGGACCCA [C3U C41U] is 0.726; for GGUCGGCAUGGUCCCAGCCUCCUGGCUGGCGCCGGCUGGGCAACAUUCCGAGGGGACCGUCCCCUCGGUAAUGGCGAAUGGGACCCA [C3U C24G] it is 0.0782.
Regarding GGUCGGCAUGGUCCCAGCCUCCUUGCUGGCGCCGGCUGGGCAACAUUCCGAGGGGACCGUCCCCUCGGUAAUGGCGAAUGGGACCCA [C3U C24U], the self-cleavage was 0.679.
Regarding GGUCGGCAUGGUCCCAGCCUCCUCGCUGGCGCCGGCUGGGCAACAUUCCGAGGGGACCGUCCACUCGGUAAUGGCGAAUGGGACCCA [C3U C63A], the self-cleavage was 0.909.
As for GGUCGGCAUGGUCCCAGCCUCCUCGCUGGCGCCGGCUGGGCAACAUUCCGAGGGGACCGUCCCCUUGGUAAUGGCGAAUGGGACCCA [C3U C66U], the figure is 0.753.
The figure for GGUCGGCAUGGUCCCAGCCUCCUCGCUGGCGCCGGCUGGGCAACAUUCCGAGGGGACCGUCCCGUCGGUAAUGGCGAAUGGGACCCA [C3U C64G] is 0.915; for GGUCGGCAUGGUCCCAGCCUCCUCGUUGGCGCCGGCUGGGCAACAUUCCGAGGGGACCGUCCCCUCGGUAAUGGCGAAUGGGACCCA [C3U C26U] it is 0.65; for GGUCGGCAUGGUCCCAGCCUCCUCGCUGGCGCCGGCUGGGCAAUAUUCCGAGGGGACCGUCCCCUCGGUAAUGGCGAAUGGGACCCA [C3U C44U] it is 0.378.
Take GGUCGGCAUGGUCCCAGCCUCCUCGCUGGCGCCGGCUGGGCAAGAUUCCGAGGGGACCGUCCCCUCGGUAAUGGCGAAUGGGACCCA [C3U C44G]: the self-cleavage worked out at 0.354.
As for GGUCGGCAUGGUCCCAGCCUCCUCGCUGGCGCCGGCUGGGCAACAUUCCGAGGGGACCGUCCCCUCGGUAAUGGCGAAUGGGACACA [C3U C85A], the figure is 0.646; as for GGUCGGCAUGGUCCCAGCCUCCUCGCUGGCGCCGGCUGGGCAACAUUCCGAGGGGACCGUCCCCUCGGUAAUGGCGAAUGGGACUCA [C3U C85U], 0.626.
As for GGUCGGCAUGGUCCCAGCCUCCUCGCUGGCGCCGGCUGGGCAACAUUCCGAGGGGACCGUACCCUCGGUAAUGGCGAAUGGGACCCA [C3U C61A], the figure is 0.801.
The figure for GGUCGGCAUGGUCCCAGCCUCCUCGCUGGCGCCGGAUGGGCAACAUUCCGAGGGGACCGUCCCCUCGGUAAUGGCGAAUGGGACCCA [C3U C36A] is 0.132; for GGUCGGCAUGGUCCCAGCCUCCUCACUGGCGCCGGCUGGGCAACAUUCCGAGGGGACCGUCCCCUCGGUAAUGGCGAAUGGGACCCA [C3U G25A] it is 0.138.
On to GGUCGGCAUGGUCCCAGCCUCCUCUCUGGCGCCGGCUGGGCAACAUUCCGAGGGGACCGUCCCCUCGGUAAUGGCGAAUGGGACCCA [C3U G25U], for which the self-cleavage stood at 0.0175.
As for GGUCGGCAUAGUCCCAGCCUCCUCGCUGGCGCCGGCUGGGCAACAUUCCGAGGGGACCGUCCCCUCGGUAAUGGCGAAUGGGACCCA [C3U G10A], the self-cleavage was found to be 0.513.
The figure for GGUCGGCAUGGUCCCAGCCUCCUCGCUGGCGCAGGCUGGGCAACAUUCCGAGGGGACCGUCCCCUCGGUAAUGGCGAAUGGGACCCA [C3U C33A] is 0.123; for GGUCGGCAUGGUCCCAGCCUCCUCGCUGGCGCGGGCUGGGCAACAUUCCGAGGGGACCGUCCCCUCGGUAAUGGCGAAUGGGACCCA [C3U C33G] it is 0.0282.
As for GGUCGGCAUGGUCCCAGCCUCCUCGCUGGCGCCGGCUGGGCAACAUUCCGAGGGGACCGUCCCCUCGGUAAUGGAGAAUGGGACCCA [C3U C75A], the figure is 0.101; as for GGUCGGCAUGGUCCCAGCCUCCUCGCUGGCGCCGGCUGGGCAACAUUCCGAGGGGACCGUCCCCUCGGUAAUGGUGAAUGGGACCCA [C3U C75U], 0.197; as for GGUCGGCAUGGUCCCAGCCUCCUCGCUGGCGCCGGCUGGGCAACAUUCCGAGGGGACCGUCCCCUCGGUAAUGGGGAAUGGGACCCA [C3U C75G], 0.104.
